Measured values reported in the RNAGym collection of RNA variant scans (doi:10.1073/pnas.2313332121).

B1: TPR t1 (parent)
chain: GACCAAUCUGCCCUCAGAGCUCGAGAACAUCUUCGGAUGCAGAGGAGGCAGGCUUCGGUGGCGCGAUAGCGCCAACGUCCUCAACCUCCAAUGCAUCCCACCACAUGAUGAUGCCUGAAGAGCCUUGGUUUUUUG

Variants of: B1
Assay: polymerase ribozyme fitness, log enrichment relative to wild type (log ratio); higher = more active; in vitro selection for triplet polymerase activity
Method in brief: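 One round of in vitro selection, in triplicate, was applied to PCR-built, transcribed mutant libraries of each subunit of a heterodimeric triplet polymerase ribozyme. The steps were annealing with a biotinylated primer, partner subunit and triplets, incubation frozen at −7 °C, gel excision of extended constructs, streptavidin-bead capture and RT-PCR. Fitness is the logarithm, base 2, of genotype enrichment over wild-type enrichment from inverse-variance-weighted replicate averages of Illumina-sequenced inputs and outputs, keeping genotypes with ≥10 input reads and ≥1 read per output.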

In order of rising “polymerase ribozyme fitness (log ratio)” value:
1. C99G G120A  -7.03
2. G93U A95U C97G G120U C124U  -6.74
3. C104G G113C  -6.7
4. C94G U109A  -6.28
5. C99A C102A U109A G127C  -6.24
6. C114A G117U  -6.19
7. A103G C115U U129G U133A  -5.83
8. C98A A111U  -5.78
9. U109A U131G  -5.71
10. C99A G127C  -5.7
11. G110C G117U  -5.43
12. G110U G117C  -5.42
13. C104A A108G U112A A118G G122U  -5.36
14. A108U G120U  -5.29
15. U109A U132C  -5.12
16. C99A C123G  -4.92
17. C98A C104U  -4.88
18. G110C C115U  -4.71
19. G93A A111U G122C  -4.63
20. G93U G110C  -4.54
21. U109C U132A  -4.52
22. A111U G113A  -4.49
23. C97U C98A  -4.41
24. A103U U106G  -4.14
25. A105C C114A  -3.98
26. G113A A119U U126A  -3.89
27. C114A U116G  -3.78
28. C97G G127U  -3.75
29. U96A G113U  -3.61
30. U106G C114G  -3.54
31. C102A U130A  -3.46
32. C101G C114A  -3.3
33. G113C G120U  -3.23
34. A100C C101G C104A C124A  -3.18
35. U106G C123U G127A  -3.09
36. U96G C98U  -3.02
37. A100U C101U C104A  -2.87
38. G93A C102U  -2.73
39. A95G C104A U109C C114U C124A  -2.73
40. G93A G128C  -2.72
41. G113U U133C  -2.64
42. C101A C115U  -2.63
43. A100C G117A  -2.55
44. C114A G122A  -2.53
45. G113U G122A  -2.45
46. C94A C101G  -2.45
47. C97U G117A  -2.32
48. C104A G122A  -2.31
49. C97A U112C  -2.11
50. U106A A111C  -1.96
51. G93A G128A  -1.95
52. G93A C102A  -1.81
53. U96C U126C  -1.7
54. C101U G135U  -1.68
55. C97U G113A  -1.5
56. G110U C123U  -1.39
57. G113U C124G  -1.38
58. U112A G117A G120U C124G  -1.37
59. G113A U134G G135U  -1.24
60. G93A C101U  -1.15
61. C94G  -0.92
62. C94A  -0.804
63. A95C G120U  -0.765
64. C94A U129C  -0.753
65. A111C G122U C123U U130C  -0.737
66. C101G G120C  -0.696
67. C101G C124G  -0.536
68. C94U  -0.383
69. U112A G128U  -0.362
70. U106A G117U G127U  -0.344
71. C101U U106A  -0.286
72. C102A C123G  -0.232
73. A100C U106A U132C  -0.19
74. C94U C115A  -0.137
75. C104A U112A  0.162
76. A100U A111G  0.222
77. U96A G120C  0.228
78. U106G A119G  0.3
79. C115A C124U  0.564
80. C104U G120C  0.802
81. U112C U129C  0.894
82. U112A C115A  1.16
83. A95G C123G  1.72
84. U106A C124A  1.81
